We go through two substances from article doi:10.1101/2020.09.16.300517.

Where “and” joins values, the source holds several entries; their conditions need not be identical. Equal values may be shown once.

Assay [1] deals with phalloidin-stabilized pyrene-labeled F-actin (rabbit) (UniProt P68135). The assay can be described thus: other fluorescence titration.
Assay [2] deals with bovine cardiac ventricular β-myosin subfragment 1 (α-chymotryptic S1) (bovine). The assay can be described thus: stopped-flow fluorescence kinetics.

By stoichiometry N is commonly meant the number of molecules, sites or subunits per partner or assembly. For the substance “bovine cardiac ventricular β-myosin subfragment 1 (α-chymotryptic S1) (domain or fragment)”, in assay [1], the PFA fluorescence restored by MgATP, with Mava stood at 84%; the PFA fluorescence restored by MgATP, with OM amounted to 65%; the decrease in pyrene fluorescence intensity at S1:actin 0.7:1 stood at 46%; the stoichiometry N is 1 S1 per actin.
A word on the Kd: it is the free concentration of one partner at which half of the binding sites on the other are occupied at equilibrium, for simple one-to-one binding. A low value points to tighter binding. For the substance “phalloidin-stabilized pyrene-labeled F-actin (from UniProt P68135 1-377) (natural protein)”, the Kd in assay [2] is 48 nM and 57 nM.
